Biological target: SARS-CoV spike prefusion stabilized ectodomain trimer (SARS-CoV) (UniProt P59594)
Assay: cryo-EM structure

With 47D11 Fab fragment as the substance, how does the stoichiometry N (Fab per spike trimer) read?
The stoichiometry N (Fab per spike trimer) was 3.

— PMC8172134
